Experimental data as given in the DeepSol protein solubility set.

Assay: soluble on expression in E. coli; label from the status in PepcDB or PDB records

Sequence | soluble on expression in E. coli
MGSDKIHHHHHHMSSVHAINQSYWFSTQLPHVESRTTRNSSHAYKTHSHAQFSIGAIEHGETLCHYRNETHHLQAGDLIFIDPQQPHSCNPPPGKMRSYHMLYLDTAWCLDQIAVHCNYQADSLRCNRVVLRDPTLFIRYQHLITLLHRGEITSADSLLNAMLTPVWQQYCLPEPALPHQALQTTTRHVRERLLNNLQESPSLETLADELNLRRETIVRQFRHDTGITPMAFLNNARIEYAKSLLKQGTPLVDTSYQSGFCDQSHFHKTFVQYTSATPGQYARSIFDNK | not soluble
MGSDKIHHHHHHMSTAIRYLRLYLHRPAAQGGGRRGIGYLSQYGDILRVSFDEDYIADPQRPTLSLSYRGANEADTQRILRSARDARLVRTDGRWPAYFQNLLPEGHNRDRLARERGCAPDDEFELLAAAGHDLMGALEVEPVPAQEGVPDVVRYWHTTQGLDVLEPGFVEYPVEDAASLPGVVTKFSAVQDGRRYLVKRRGAAGSVILKLPTTAHPDLVANEFTCYQLAGSLGLHCAQARIITRAEAELPEAVPLDDILAVQRFDHLADGTRVHMEEFNQALGYAPRQKYGKGLLQDWATMLRVVDRLSDQPVQDTREFLARMVAFILMGNTDAHLKNWALVYPDGHTPRLAPLYDPVCVAAFFEGATEHQYAVNRAIDRSMRALDWDALQALIKTAGLLRIPRHLALLRDLVRRAQADWPALLADAPSTLQRTVQARLAGGVALTHP | not soluble
MGSDKIHHHHHHMSTEKIFIIGLPRTATTSVCLAMLEQGYKTAHNAYTQDSFSQAQVLADTPIFCDYQTLDKDFPNSRFIHLTRAPELWLPSIKQLLQRMLVNLQRTDGGFNPHIKRCYSETFSPLTEENINSDEFLLDCYTRHQQGITEHFQDRPQDLLTIDVGDEGSYLAMLSFLNIEKEKAREGGFKQINIGGKVRAWQHLNNPLKVESTNKGRIDKVLY | not soluble
MGSDKIHHHHHHMSTLLQIKNLRTYFFTDEGVVKAVDGVSFEIEEGRTLGVVGESGCGKSVTARSIIKLLSTAGRIVSGEILYNMDGQMVDLVKFSKEEIRKVRGRHIAMIFQEPMAAFSPVYTIGDQITEGMIYHFGITKQEARERAVELLRRVGIPKPEKMIDSYPFEYSGGMRQRAMIAMALSCNPRLLIADEPTTALDVTIQAQVLDLLKDLQQEYKMAIMMITHNMGVVAEMADHVVVMYLGRVVESAPVEELFYNPKHPYTSLLLRSIPVVGKRVERLEVIEGDVPDPRNMPKGCRFHPRCPYMMKGICDEREPVEVEVGPEHRVSCFLYGGEKDGAS | not soluble
MGSDKIHHHHHHMSTRQLLRNHYVQVDRSKKPYCFLLAKEPEYNDILNNYRIPLGEYQFKRTLFAREWLYKDVWHEMVSFAFCREPLSRCISAFFYLWEAEAQRRAWLPSFNGALNAHGYGLDYSFDQFLDAVVACRDSGSNFSPMGLHFSTHTATMWDDVTDSGGSILLSNIFRLEDLIHGINHVFSVCGVPDKAKPLLRDINTNETKRPFTPSRHHIAKVEDLYGKDFELYETYGRLF | not soluble
MGSDKIHHHHHHMSVLVVGMSHRSAPVALLEKLSMDDGVRTNTVSDLVARPSLAEAMIVSTCNRLEVYAMTSSFHTGVNDVVEVLHDMSGVDMEELRGYLYVRYADAAAEHMMEVTSGLDSMVVGEQQIIGQVRTAYHSATEAGTVGPALHGLVQASLHTGKRVHTETDIDDAGASMVSFACDEALAQMSATNFAGCRALVLGAGAMASLAATHLGRLGIEHITVANRTFERAQRLADHAVEAGVAASAIEFERRMDVLCDVDVVVSATGANTFTIEAANIPAAHGDLMMIDLSLPRDISDDVAEVPGVHLVNIEKLRDVASSGEAKDHAAQRIVAEELEAYTSAQRIRDVAPAVAALRRHASSLIDSELARLSTRVPSMDEDDFSEVQRTVRRVVDKLLHQPTVRVKELAAQSGTVSYDTAIQELFGLAVEATPVAVNVDELPERINKR | not soluble
MGSDKIHHHHHHMSVVIGYYGKNGAVIAGDKRNLLFNGIESNRAKLEEVLYSGEIKNDEELFKKASEFEVTVHINDTREKVKSLGNLLSGEVVSIGKDSKRRRMYLTKEKCAIIDIENDQITNKSVKTGSGIVVFGNRYVKHFVESEIKKHVQKLLKMSAREIRDLFEKILKNIENATLSDTFEYYVVEAGEPEFEKAVNKDLDDLFNYRHDLSIKMAEMQILTMIAEKIVKIGDVGVIKNGTLVLYDEFLAINKICPEPEIYSEIEITGEFIEGDIITIDNESLKVKRTGSPVAVQKIICKK | not soluble
MGSDKIHHHHHHMSYLLRKPQSHEVSNGVKLVHEVTTSNSDLTYVEFKVLDLASGSSYTEELKKQEICIVAVTGKITVTDHESTFENIGTRESYFERKPTDSVYISNDRAFEITAVSDARVALCYSPSEKQLPTKLIKAEDNGIEHRGQFSNKRTVHNILPDSDPSANSLLVVEVYTDSGNWSSYPPHKHDQDNLPEESFLEETYYHELDPGQGFVFQRVYTDDRSIDETMTVGNENVVIVPAGYHPVGVPDGYTSYYLNVMAGPTRKWKFYNDPAHEWILER | not soluble
MGSDKIHHHHHHMSYSDVIAIAGGWEGYRVAGARTIVTSDAKRIEVELIALSQDEMVCGSCGGRCTSVHETTKRVIRDLPILDAQTYLIVHRRRLLCPQCGPTLERLSWLAKYARVTRRLAESVARLCGVVSVKHVAQYLGLSWDQVKEIDKRSLTERVGTVDLSNIEVLGMDEFALHKGHRYATVIIEPYRKEVLWIGKGRSRESIRPFFTQLGPHGCKRLKAVVMDMNASYEEEIKQHSPQADIVYDLFHVVAKYGREVIDRVRVDEANRLKEDKKARKVVKTSRWLLLRNSENVKGDDMLRLQELLEANRSLLTVYLLKDDLKQLWKFTCIEEAGLFWEQWHQRAMESGIPPLILFARRLKGYLQGILNHCLWPLHTGILEGINNKIKVIKRMAYGFRDHEYFFLKIRAAFPGIPG | not soluble
MGSDKIHHHHHHMTAANTQHVEHINECTLESVIDLIRDADKPMVFKGLCHHWPLVQAGLESAQSAMTYLRQFYQGMPVTAYYVPPEQHGRVFYNEQLDGFNYQAGRLDFNQLLDRLSQEMIKDMPAGMYMGSTDIHQCLPGLGAQNSLDLAPMQPLTSIWLGNQTKVAAHYDFPLNLACNVVGKRTFTLFPPEQISNLYVGPMELAPGGQDISLVDMANPDFERFPRFQHALDASLTAELSPGDVLFIPSMWWHHVRGVDDFNVLITHWWRDTPGFLGRPNNALLHSILSLRSLPKAQRQAWKSIFEHYIFDHDDVDDSHIPDNVKGMQTKPLDELTARKIRADLINKLKR | not soluble
MGSDKIHHHHHHMTAGGLHNGSGGMESARHCRELVERWLADGSFDARLPEVVRLRGVLQPEQYHAEGDAWTHTMLAMEAVPDDADPRVFWGVLLHDIGKAETTAFIKGRWRSWGHAEAGAGEVSAIMTRLGFPHLAADVTWLVKHHTFHFSWNLTPGARLSPKQRRFMEHPLFPLLLEVCDADAAGSRGGSDKGVKIGQLADMYADVTKGWADS | not soluble
MGSDKIHHHHHHMTAPMNVIDDYYVSLGKIGILNYRTMDESGENAFLRKYLPSLSSPTILDVGANIGGYSKAILRESPSARVYAFEPHPITFGNLTKDTAEDRFHALNIGIGAKEETLDFYDYRDEDGSSHASLYKEVIEDIHHRPSTSHRVSIRRLDDVCAELGLPHIALLKIDTEGHELAALQGAERLIRSGAIDVIQFEFNEMNVISRCFFKDFWDFLPDYRFFRLLPHGSIEIKTYIPSFCEIFAFQNIVCVKKDLPEFF | not soluble
MGSDKIHHHHHHMTATDSSILNQYLVGKEPFYQPQHDEVALFEAAYRKRLPVMVKGPTGCGKSRFVEFMAWRLGKPLVTVACNEDMTAADLVGRWLLDKDGTRWQDGPLTVAARYGAICYLDEIVEARQDTTVVIHPLTDHRRTLPLDKKGELIRAHPDFQLVISYNPGYQSLMKDLKQSTKQRFTGFEFDYPNAELEAGILVQETGVAPSIAAQLVTVAATARRLKGHGLDEGISTRLLVYAAMLMDDGVAPRAACRMALVQPITDDADIRATLEHAIDMTFA | not soluble
MGSDKIHHHHHHMTCKRALTAYPELLSRTVAAPSWVMPGTVRDNAIFLSGEVDEVGLCFFETAACLAYGENDLPEHLADLPLGWHVHLPGDLPWCDGGAEAAVPALRLMDKVAFLGAHRAVLHPPVGFADGAARLVAFVRAWEAAGRNPEDLCLENIRGEDLTGLWRTLCDLGCKVCLDMGHVLSYGQYGLLSLPGLSGRTSMLHANAPGPAGRHLSLDTLDGAGGGVGRAMCALLPDDAVVMVEVFDWEGVRRSLPLLETWFAAQR | not soluble
MGSDKIHHHHHHMTCRRITFVPNFMIRDARVLRAGFVPREVEHRDAEVNHLSSVLEPITNGEPADTAIVTGPSGTGKTCISQFVTERLREEVLNVEATYVNCWRNYTRFRTLYQILDDFGETIDIHRQSTPHDELIDRLQQYDGPRTVIILDEVDQLEDPGIIYDLHSLPHFAVICIANKEEDLFSRVDDRLVSRLRSSEHVRMDKYHDEQLHDILAARVKGGLDQDVITTNQLDRIADAAAGDARLAIGILRTAASKADRESRERITDDILLNAAEDARAQIKQKNLDSLIPHQRLVYDVVREHGPLGPSEIYDHYKRKVDDPRTKRTIRTYLSKMTQYNVLEAEGTSRDREYSLVDSTAPSVTQ | not soluble
MGSDKIHHHHHHMTDERIHILRDILLELHNGASPESVQDRFDATFTGVSAIEISLMEHELMNSDSGVTFEDVMELCDVHANLFKNAIKGVEVSDTEHPGHPVRVFKEENLALRAALIRIRRLLDTYESMEDEEMLAEMRKGLVRQMGLVGQFDIHYQRKEELFFPIMERYGHDSPPKVMWGVDDQIRELFQTALTTAKSLPEVSISSVKEAFEAFATEFESMIFKEESILLMILLESFTQDDWLQIAEESDAYGYAIIRPSEKWVPERQSFIEEKIAEEPVQLDTAEGQVQQVIDTPEGHFTITFTPKEKEAVLDRHSQQAFGNGYLSVEQANLILNHLPMEITFVNKEDIFQYYNDNTPADEMIFKRTPSQVGRNVELCHPPKYLDKVKTIMKGLREGSKDKYEMWFKSESRGKFVHITYAAVHDEDGEFQGVLEYVQDIQPYREIDTDYFRGLE | not soluble
MGSDKIHHHHHHMTDISWEMNDQTIVRKTDKIARQDTLPDLTLKKVKQGDRMRFDAHVNVDSMAEGQHLKRVTIFSNVPGGGTWELISDEGVAVGGRGTAPSPQMYFAAGLGLCLMSHVEMLAKSGEFEITSARLEQRSTWTTTMDLGAVAPANIYGKGEHMQMNLIIESPEPTPKIAEFIAYCRQACMALQTVAAATPVATGLYLNGAHIGDVGGTGPFAKVA | not soluble
MGSDKIHHHHHHMTDLKTTFAGLSLRNPIIISSSGLTNSAGKNKRLAEAGAGAIVLKSLFEEQIMLEADQLKDPAFYPEASDYLEEYIREHKLAEYLTLIKESKKECSIPIIASINCYSDSEWVDFAKQIQEAGADALEINILALQSDVQYTYGSFEQRHIDILRHIKQTVTIPVIMKLGDNLTNPVALIDQLYANGAAAVVLFNRFYQPDINIENMEQVSGEVFSTSADLATPLRWIGIASSVVNKIDYAASGGVANPEAVVKAILAGASAVEVCSAIYQNTNAFIGESTRFLSAWMERKGFKNIAQFKGKLNIKDVQGINTFERTQFLKYFGKKEA | not soluble
MGSDKIHHHHHHMTDTISYQYAAPSVLQRSSDQDELFLAKYSEIEKKEAPCFFWGKLTQPYMTARCLIALSNVVQSSFNLTPAQLSMLKDPIVTAGNERLRFEGFSNCAGVYARVDVLPDGHDGEFLENGTTNVDFNAGMISALGSISKQEKVVMSVGPKEVGLYNKGEKVIERKVPLPVKWIKGLTTVQIYQSVAERMYSFNRIQTLQLFQTLPKGTVKCDYYLVMRGQKPAFSPVKSLNAVCIGGVHRLRLLEPLLPFADELRVFVHPTMQSTIWQLYFGPVRFSLSLSRECWRGFSGEGAALDALLEDVPEKWIAAMDKYSYANQQFNPTLFAIEEHIDLDKVDSLSARLAAMGLLGFDLDDNSFFYRRLPFKTERILSLNPRMIAAEKLLEEEKVEIISNDGNRTEARVAGSGGVRHTVILDRESEKERCTCTWFSGNQGERGACKHILAVKKRVQWKN | not soluble
